Consider four molecules from publication PMC9900795 (bioRxiv, 2023).

Holding throughout (assay): pull-down
Experiment [1] addresses FL-Ndel1^PM, full-length Ndel1 with the five sites phosphorylated by CDK5 mutated to aspartic acid (UniProt Q9GZM8).
For experiment [2], the target named is NT-Ndel1, truncation of Ndel1 containing only the N-terminal coiled-coil (UniProt Q9GZM8).
Experiment [3] addresses Ndel1^ΔCTCC, Ndel1 with the C-terminal coiled-coil containing the purported heavy chain-binding site deleted (UniProt Q9GZM8).
The target of experiment [4] is FL-Ndel1^PM, full-length Ndel1 with the five sites phosphorylated by CDK5 mutated to aspartic acid (UniProt Q9GZM8). The source holds these as a separate data set.
The target in experiment [5] is T1, Lis1 (UniProt P43034 1-410).
T1 sequence: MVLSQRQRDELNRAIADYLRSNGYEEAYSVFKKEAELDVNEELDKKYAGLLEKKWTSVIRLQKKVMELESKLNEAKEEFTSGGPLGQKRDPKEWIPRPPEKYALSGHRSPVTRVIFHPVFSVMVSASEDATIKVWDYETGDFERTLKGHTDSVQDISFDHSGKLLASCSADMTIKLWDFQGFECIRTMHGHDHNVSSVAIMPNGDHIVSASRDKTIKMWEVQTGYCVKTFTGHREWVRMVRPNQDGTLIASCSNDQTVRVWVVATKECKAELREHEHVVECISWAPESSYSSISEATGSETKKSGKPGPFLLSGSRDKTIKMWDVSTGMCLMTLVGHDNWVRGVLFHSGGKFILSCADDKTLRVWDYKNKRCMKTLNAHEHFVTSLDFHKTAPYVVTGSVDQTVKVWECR

By Kd is commonly meant the equilibrium constant for the complex coming apart. In experiment [1], “SNAP-tagged, recombinant full-length human dynein with all associated accessory chains (from UniProt Q14204;O43237;P63172;Q9NP97;P63167) (complex)” displayed a fold higher affinity than FL-Ndel1 of 2 fold. Also, the Kd came out at 79 nM in experiment [2] and 55 nM in experiment [3].

B1: Lis1 (natural protein)
chain: MVLSQRQRDELNRAIADYLRSNGYEEAYSVFKKEAELDVNEELDKKYAGLLEKKWTSVIRLQKKVMELESKLNEAKEEFTSGGPLGQKRDPKEWIPRPPEKYALSGHRSPVTRVIFHPVFSVMVSASEDATIKVWDYETGDFERTLKGHTDSVQDISFDHSGKLLASCSADMTIKLWDFQGFECIRTMHGHDHNVSSVAIMPNGDHIVSASRDKTIKMWEVQTGYCVKTFTGHREWVRMVRPNQDGTLIASCSNDQTVRVWVVATKECKAELREHEHVVECISWAPESSYSSISEATGSETKKSGKPGPFLLSGSRDKTIKMWDVSTGMCLMTLVGHDNWVRGVLFHSGGKFILSCADDKTLRVWDYKNKRCMKTLNAHEHFVTSLDFHKTAPYVVTGSVDQTVKVWECR
In turn, B1 had a Kd in experiment [4] of 4 nM. That is a single-digit nanomolar value.

B2: full-length Ndel1 (FL-Ndel1), HaloTag at the N-terminus and 6X-His tag at the C-terminus (natural protein)
chain: MDGEDIPDFSSLKEETAYWKELSLKYKQSFQEARDELVEFQEGSRELEAELEAQLVQAEQRNRDLQADNQRLKYEVEALKEKLEHQYAQSYKQVSVLEDDLSQTRAIKEQLHKYVRELEQANDDLERAKRATIVSLEDFEQRLNQAIERNAFLESELDEKESLLVSVQRLKDEARDLRQELAVRERQQEVTRKSAPSSPTLDCEKMDSAVQASLSLPATPVGKGTENTFPSPKAIPNGFGTSPLTPSARISALNIVGDLLRKVGALESKLAACRNFAKDQASRKSYISGNVNCGVLNGNGTKFSRSGHTSFFDKGAVNGFDPAPPPPGLGSSRPSSAPGMLPLSV
Regarding B2, the Kd in experiment [5] is ~4 nM.

B3: NT-Ndel1, truncation of Ndel1 containing only the N-terminal coiled-coil (domain or fragment)
chain: MDGEDIPDFSSLKEETAYWKELSLKYKQSFQEARDELVEFQEGSRELEAELEAQLVQAEQRNRDLQADNQRLKYEVEALKEKLEHQYAQSYKQVSVLEDDLSQTRAIKEQLHKYVRELEQANDDLERAKRATIVSLEDFEQRLNQAIERNAFLESELDEKESLLVSVQRLKDEARDLRQELAVRERQQEVTR
B3: the Kd in experiment [5] is ~1.2 nM.
